Source: patent publication US20130045219A1 (UCB, published 2013)

T1: CD154 expressed on D1.1 Jurkat cells (UniProt P29965 1-261, limits assumed)
T1 sequence (looked up): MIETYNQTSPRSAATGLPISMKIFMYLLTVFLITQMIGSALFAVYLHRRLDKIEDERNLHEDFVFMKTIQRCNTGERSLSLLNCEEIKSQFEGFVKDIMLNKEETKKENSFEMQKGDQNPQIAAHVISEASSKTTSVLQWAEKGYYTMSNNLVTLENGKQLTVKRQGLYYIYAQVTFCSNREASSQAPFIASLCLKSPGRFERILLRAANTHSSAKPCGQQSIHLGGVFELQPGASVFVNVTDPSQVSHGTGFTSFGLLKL

T2: soluble human CD154 protein (extracellular domain) (human, UniProt P29965 116-261)
T2 construct: also called sCD154; recombinant extracellular domain of human CD154
T2 sequence: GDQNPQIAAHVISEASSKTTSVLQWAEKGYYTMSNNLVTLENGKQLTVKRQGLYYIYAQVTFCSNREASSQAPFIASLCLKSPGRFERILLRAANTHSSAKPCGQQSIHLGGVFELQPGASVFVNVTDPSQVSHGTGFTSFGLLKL


Columns and labels:
[1] = target: T1, CD154 expressed on D1.1 Jurkat cells; test: cell-based or functional assay
[2] = target: T1, CD154 expressed on D1.1 Jurkat cells; test: flow cytometry: inhibition of the binding of hCD40-mFc-PE to CD154-expressing D1.1 Jurkat cells by serially diluted antibody (Example 5)
Method: A flow cytometry-based assay was used to assess the binding of labeled CD40 to CD154-expressing D1.1 cells. D1.1 Jurkat cells (American Type Culture Collection) were maintained in RPMI 1640 medium (Gibco, 31870-025)) containing 10% (v/v) fetal calf serum (FCS), 2 mM glutamine (Invitrogen, 23030024), 1 mM sodium pyruvate (Invitrogen, 11360-039), 1% (v/v) D-(+)-glucose (Sigma, G8769) & 10 mM HEPES (Sigma, H0887). At time of assay, 100,000 D1.1 cells were incubated in 100 μL RPMI 1640 medium+10% FCS, in the presence or absence of serially diluted anti-CD154 antibody for 15 minutes at room temperature. 5 μL of a 1:75 dilution of hCD40-mFc-PE (Alexis Corp, ANC-504-050) was then added and incubated for a further 30 minutes at room temperature. After washing twice in phosphate-buffered saline (PBS) containing 1% (w/v) bovine serum albumin (BSA fraction V, Serologicals Proteins Inc, 81-068-5) and 0.02% (w/v) sodium azide (BDH, 103692K), cells were resuspended in 200 μL PBS/1% BSA/0.02% sodium azide and flow cytometry performed on a Becton Dickinson FACScan. The values for geometric mean fluorescence (FL2) were assessed in all cases.

[3] = target: T2, soluble human CD154 protein …; test: Biacore (SPR): antibody or fragment captured on immobilized anti-human IgG (Fc- or Fab'-specific) F(ab')2, recombinant extracellular domain of human CD154 titrated over it (Example 4)
Method: Catalogue Number: BR-1001-88, Biacore AB, Uppsala, Sweden. Buffer stored at 4° C. Immobilization buffer is Acetate 5.0 (being 10 mM sodium acetate pH 5.0). Catalogue number: BR-1003-51, Biacore AB, Uppsala, Sweden. Buffer stored at 4° C. Ligand capture: Affinipure F(ab′)₂ fragment goat anti-human IgG, Fab′ fragment specific (Catalogue number: 109-006-097) or Fc fragment specific (Catalogue number: 109-006-098), Jackson ImmunoResearch Inc (Pennsylvania, USA). Reagents stored at 4° C. […] Analyte: Recombinant extracellular domain of human CD154. Material was prepared at 2 mg/mL (40 μM) in phosphate-buffered saline, stored at 4° C., and diluted in HBE-EP running buffer for the assays. […] Regeneration Solution: 40 mM HCl prepared by dilution with distilled water from an 11.6 M stock solution (BDH, Poole, England. Catalogue number: 101254H). 5 mM NaOH prepared by dilution with distilled water from a 50 mM stock solution. Catalogue number: BR-1003-58, Biacore AB, Uppsala, Sweden. Assay Method: BIA (Biamolecular Interaction Analysis) was performed using a Biacore® 3000 (Biacore AB). Affinipure F(ab′)₂ fragment goat anti-human IgG, Fc- or Fab′-fragment specific (Jackson ImmunoResearch) were immobilized on a CM5 Sensor Chip via amine coupling chemistry to a capture level of ≈6000 response units (RUs). HBS-EP buffer (10 mM HEPES pH 7.4, 0.15 M NaCl, 3 mM EDTA, 0.005% Surfactant P20, Biacore AB) was used as the running buffer with a flow rate of 10 μl/min. Anti-CD154 antibodies or Fab fragments were used at concentrations such that, once captured by the immobilized anti-human IgG-Fc (or anti-human IgG Fab′) surface, gave a signal of ≈200 RUs. Human CD154 was titrated over the captured antibody, at various concentrations. 90 μL of CD154 was injected over the surface (association phase), followed by a 240 second dissociation phase, all at a flow rate of 30 μl/min. […] Background subtraction binding curves were analyzed using the BIAevaluation software (version 3.2) following standard procedures. Kinetic parameters were determined from the fitting algorithm.

[4] = target: T1, CD154 expressed on D1.1 Jurkat cells; test: flow cytometry competition binding assay: serially diluted antibody against biotinylated 342 Fab on CD154-expressing D1.1 Jurkat cells, streptavidin-R-phycoerythrin detection (Example 6)
Method: A flow cytometry-based assay was used to assess the binding of anti-CD154 antibody to CD154-expressing D1.1 cells. D1.1 Jurkat cells (American Type Culture Collection) were maintained in RPMI 1640 medium (Gibco, 31870-025) containing 10% (v/v) fetal calf serum (FCS), 2 mM glutamine (BioWhittaker, 17-605E) and […] (Mediatech, 30002107). […] The cells were washed three times in FACS buffer with centrifugation at 290×g for 3 minutes in between washes. A 1:500 dilution of streptavadin-R-phycoerythrin conjugate (Jackson Immunoresearch, 016-110-084) in […] FACS buffer was added and the cells were incubated for one hour at 4° C. The cells were washed once and fixed in PBS with 3% formaldehyde at room temperature for 10 minutes. The cells were resuspended in FACS buffer and run on a FacsCalibur (BD). The values for geometric mean fluorescence (FL2) were assessed in all cases.

Row | Binder | IC50 of inhibition of ICAM-1 (CD54) upregulation on CD40-expressing Ramos B cells co-cultured with CD154-expressing D1.1 Jurkat cells [1] [µg/mL] | IC50 [2] [µg/mL] | Kd [3] [nM] | IC50 [4] [nM]
1 | 342 Fab'-PEG (Fab, V domains shown, PEG-maleimide on the single cysteine at the hinge) VH: EVQLVESGGGLVQPGGSLRLSCAVSGFSSTNYHVHWVRQAPGKGLEWMGVIWGDGDTSYNSVLKSRFTISRDTSKNTVYLQMNSLRAEDTAVYYCARQLTHYYVLAAWGQGTLVTVSS VL: DIQMTQSPSSLSASVGDRVTITCRASEDLYYNLAWYQRKPGKAPKLLIYDTYRLADGVPSRFSGSGSGTDYTLTISSLQPEDFASYYCQQYYKFPFTFGQGTKVEIKR | 0.127 | 0.035 | 0.05 | 0.113
2 | 342 Di-Fab' (other, the two Fab' are cross-linked at the hinge; the linker is not described for this molecule) heavy chain (Fab'): EVQLVESGGGLVQPGGSLRLSCAVSGFSSTNYHVHWVRQAPGKGLEWMGVIWGDGDTSYNSVLKSRFTISRDTSKNTVYLQMNSLRAEDTAVYYCARQLTHYYVLAAWGQGTLVTVSSASTKGPSVFPLAPSSKSTSGGTAALGCLVKDYFPEPVTVSWNSGALTSGVHTFPAVLQSSGLYSLSSVVTVPSSSLGTQTYICNVNHKPSNTKVDKKVEPKSCDKTHTCAA light chain: DIQMTQSPSSLSASVGDRVTITCRASEDLYYNLAWYQRKPGKAPKLLIYDTYRLADGVPSRFSGSGSGTDYTLTISSLQPEDFASYYCQQYYKFPFTFGQGTKVEIKRTVAAPSVFIFPPSDEQLKSGTASVVCLLNNFYPREAKVQWKVDNALQSGNSQESVTEQDSKDSTYSLSSTLTLSKADYEKHKVYACEVTHQGLSSPVTKSFNRGEC | 0.022 | 0.009 | – | –
3 | 342 Tri-Fab' (other, the three Fab' are cross-linked at the hinge; the linker is not described) heavy chain (Fab'): EVQLVESGGGLVQPGGSLRLSCAVSGFSSTNYHVHWVRQAPGKGLEWMGVIWGDGDTSYNSVLKSRFTISRDTSKNTVYLQMNSLRAEDTAVYYCARQLTHYYVLAAWGQGTLVTVSSASTKGPSVFPLAPSSKSTSGGTAALGCLVKDYFPEPVTVSWNSGALTSGVHTFPAVLQSSGLYSLSSVVTVPSSSLGTQTYICNVNHKPSNTKVDKKVEPKSCDKTHTCAA light chain: DIQMTQSPSSLSASVGDRVTITCRASEDLYYNLAWYQRKPGKAPKLLIYDTYRLADGVPSRFSGSGSGTDYTLTISSLQPEDFASYYCQQYYKFPFTFGQGTKVEIKRTVAAPSVFIFPPSDEQLKSGTASVVCLLNNFYPREAKVQWKVDNALQSGNSQESVTEQDSKDSTYSLSSTLTLSKADYEKHKVYACEVTHQGLSSPVTKSFNRGEC | 0.031 | 0.009 | – | –
4 | 342 Di-Fab'-PEG (other, the two Fab' are cross-linked and PEGylated; paragraph 96 describes DFM-PEG as two Fab' cross-linked with a PEGylated dimaleimide bridge) heavy chain (Fab'): EVQLVESGGGLVQPGGSLRLSCAVSGFSSTNYHVHWVRQAPGKGLEWMGVIWGDGDTSYNSVLKSRFTISRDTSKNTVYLQMNSLRAEDTAVYYCARQLTHYYVLAAWGQGTLVTVSSASTKGPSVFPLAPSSKSTSGGTAALGCLVKDYFPEPVTVSWNSGALTSGVHTFPAVLQSSGLYSLSSVVTVPSSSLGTQTYICNVNHKPSNTKVDKKVEPKSCDKTHTCAA light chain: DIQMTQSPSSLSASVGDRVTITCRASEDLYYNLAWYQRKPGKAPKLLIYDTYRLADGVPSRFSGSGSGTDYTLTISSLQPEDFASYYCQQYYKFPFTFGQGTKVEIKRTVAAPSVFIFPPSDEQLKSGTASVVCLLNNFYPREAKVQWKVDNALQSGNSQESVTEQDSKDSTYSLSSTLTLSKADYEKHKVYACEVTHQGLSSPVTKSFNRGEC | 0.058 | 0.032 | 0.045 | 0.026

Results, then the binder that gave them:

Row | IC50 of inhibition of ICAM-1 (CD54) upregulation on CD40-expressing Ramos B cells co-cultured with CD154-expressing D1.1 Jurkat cells [1] [µg/mL] | IC50 [2] [µg/mL] | Kd [3] [nM] | IC50 [4] [nM] | Binder
5 | 0.048 | 0.025 | – | 0.035 | 342 aglycosyl IgG4 (antibody, V domains shown, S228P and T299A (Kabat EU) are contained in SEQ ID NO: 72; not N-glycosylated, also called aglycosylated hu342; hu342 aglyP-huIgG4) VH: EVQLVESGGGLVQPGGSLRLSCAVSGFSSTNYHVHWVRQAPGKGLEWMGVIWGDGDTSYNSVLKSRFTISRDTSKNTVYLQMNSLRAEDTAVYYCARQLTHYYVLAAWGQGTLVTVSS VL: DIQMTQSPSSLSASVGDRVTITCRASEDLYYNLAWYQRKPGKAPKLLIYDTYRLADGVPSRFSGSGSGTDYTLTISSLQPEDFASYYCQQYYKFPFTFGQGTKVEIKR
6 | 0.036 | 0.008 | – | – | 342 Tri-Fab'-PEG (other, the three Fab' are cross-linked and PEGylated; the chemistry is not described) heavy chain (Fab'): EVQLVESGGGLVQPGGSLRLSCAVSGFSSTNYHVHWVRQAPGKGLEWMGVIWGDGDTSYNSVLKSRFTISRDTSKNTVYLQMNSLRAEDTAVYYCARQLTHYYVLAAWGQGTLVTVSSASTKGPSVFPLAPSSKSTSGGTAALGCLVKDYFPEPVTVSWNSGALTSGVHTFPAVLQSSGLYSLSSVVTVPSSSLGTQTYICNVNHKPSNTKVDKKVEPKSCDKTHTCAA light chain: DIQMTQSPSSLSASVGDRVTITCRASEDLYYNLAWYQRKPGKAPKLLIYDTYRLADGVPSRFSGSGSGTDYTLTISSLQPEDFASYYCQQYYKFPFTFGQGTKVEIKRTVAAPSVFIFPPSDEQLKSGTASVVCLLNNFYPREAKVQWKVDNALQSGNSQESVTEQDSKDSTYSLSSTLTLSKADYEKHKVYACEVTHQGLSSPVTKSFNRGEC
